Measurements as given in patent US20050261190A1.

Target: multiubiquitinated proteins (of HEK293T cells)
Test: cell-based or functional assay

Sequence of Flag-tagged hFAF1 (human Fas associated factor 1, full form) (Q9UNN5 other isoform, or with tags, fused parts or gaps): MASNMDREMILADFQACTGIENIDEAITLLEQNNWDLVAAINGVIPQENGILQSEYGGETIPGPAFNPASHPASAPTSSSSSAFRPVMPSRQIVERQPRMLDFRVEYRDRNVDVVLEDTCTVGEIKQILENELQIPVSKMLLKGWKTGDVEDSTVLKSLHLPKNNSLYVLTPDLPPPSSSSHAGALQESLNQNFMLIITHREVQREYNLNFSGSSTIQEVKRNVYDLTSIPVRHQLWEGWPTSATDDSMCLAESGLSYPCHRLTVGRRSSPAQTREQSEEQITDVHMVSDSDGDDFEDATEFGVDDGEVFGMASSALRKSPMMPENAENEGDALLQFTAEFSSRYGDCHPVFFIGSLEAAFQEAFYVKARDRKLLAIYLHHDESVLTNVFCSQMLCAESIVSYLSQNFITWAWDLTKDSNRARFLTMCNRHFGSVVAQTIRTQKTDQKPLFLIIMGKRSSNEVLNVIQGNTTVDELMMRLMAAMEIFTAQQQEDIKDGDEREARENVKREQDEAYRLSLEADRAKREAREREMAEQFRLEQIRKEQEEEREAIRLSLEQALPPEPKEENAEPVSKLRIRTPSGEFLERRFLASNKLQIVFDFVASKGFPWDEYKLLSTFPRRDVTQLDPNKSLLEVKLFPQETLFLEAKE

mean fluorescence intensity of the Ub^G76V-GFP reporter (flow cytometry): 2 fold
Substance: Flag-tagged hFAF1 (human Fas associated factor 1, full form) (from UniProt Q9UNN5 1-650)
